From US20080166345A1, “MEDICAMENTS COMPRISING GENE RECOMBINANT ANTIBODY AGAINST GANGLIOSIDE GD3” (KYOWA HAKKO KOGYO CO., LTD., priority 2001, published 2008)

How the values were obtained:
[1] = Reactivity of purified antibodies with various gangliosides (ELISA); type: binding; conditions: antibody 10 μg/ml, 20 pmol/well; FIG. 22
Method: (§1) Each ganglioside (2 nmol) was dissolved in […] of ethanol solution containing 10 μg of dipalmitoylphosphatidylcholine (manufactured by SIGMA) and 5 μg of cholesterol (manufactured by SIGMA). In each well of a 96 well plate for ELISA (manufactured by Greiner), 20 μl of the solution (becomes 20 pmol/well) or 20 μl of the solution diluted with ethanol was respectively dispensed, followed by air-drying, and then PBS containing 1% BSA (hereinafter referred to as “1% BSA-PBS”) was added in 100 μl/well and allowed to react at room temperature for 1 hour to thereby block remaining active groups. After discarding 1% BSA-PBS, culture supernatants of transformants or diluted solutions of humanized antibodies were added in 50 μl/well and allowed to react at room temperature for 1 hour. […] After the reaction and subsequent washing with Tween-PBS, an ABTS substrate solution (a solution prepared by dissolving 0.55 g of 2,2′-azinobis(3-ethylbenzothiazoline-6-sulfonic acid) in 1 L of 0.1 M citrate buffer (pH 4.2) and adding 1 μl/ml hydrogen peroxide just before the use) was added in 50 μl/well for color development and the absorbance at 415 nm (hereinafter referred to as “OD415”) was measured.
(§2) Reactivity of purified anti-GD3 CDR-grafted antibodies KM8869, KM8870 and KM8871 with GD3 (manufactured by DIA-IATRON) was measured by the ELISA shown in the item 2 of Reference Example. […]

[2] = human peripheral blood monocyte as effector; cited from earlier work
[3] = tested on: human melanoma culture cell line SK-MEL-28; experiment: In vitro cytotoxic activity (CDC activity), 51Cr release; type: cell-based; conditions: antibody 0.05 to 50 μg/ml, human complement; FIG. 24
Method: Each of human melanoma culture cell lines, G-361 (ATCC CRL 1424) and SK-MEL-28 (ATCC HTB72), was cultured in RPMI1640-FBS(10) medium and adjusted to 5×10^6 cells, and the cells were isotope-labeled by adding 3.7 MBq equivalent of a radioactive substance Na2^51CrO4 and carrying out the reaction at 37° C. for 1 hour. After the reaction, the cells were washed three times by their suspension in RPMI1640-FBS(10) medium and centrifugation, re-suspended in the medium and then incubated in ice at 4° C. for 30 minutes to thereby spontaneously release the radioactive substance. […]
To each well of a 96 well U bottom plate (manufactured by Falcon), 50 μl of the target cell suspension prepared in “a.” was added (5×10^4 cells/well), and then the anti-GD3 chimeric antibody KM871 or the anti-GD3 CDR-grafted antibody, KM8869, KM8870 or KM8871, was added to give a final concentration of 0.05 to 50 μg/ml and allowed to react at room temperature for 30 minutes. […] After centrifugation, the amount of ^51Cr released in the supernatant was measured by a γ-counter. The amount of the spontaneously dissociated ^51Cr was calculated by carrying out the same procedure using the medium alone instead of the antibody solution and complement solution and measuring the amount of ^51Cr in the supernatant. […] The CDC activity was calculated by the following equation.

B16-8-3 = experiment: Fluorescent antibody technique (flow cytometer), GD3 synthase transfectant; type: binding, mouse; conditions: antibody 5 μg/ml; FIG. 3
Method: (§3) Each of 1×10^6 cells of the GD3 synthase gene transfectants B16-8-3 and B16-29-10 obtained in b. of the item (2) of Example 1 and the parent cell line B16-F10 cell were suspended in PBS, put into a microtube (manufactured by Treff) and centrifuged (2,000 rpm for 2 minutes) for washing the cells, 50 μl of the anti-GD3 human chimeric antibody KM871 (a solution prepared by adjusting to 5 μg/ml with 1% BSA-PBS, negative control was 1% BSA-PBS alone) was added thereto, followed by stirring, and the reaction was carried out at 4° C. for 1 hour. After the reaction and subsequent washing with PBS by centrifugation three times, 100 μl of biotin-labeled goat anti-human IgG (H+L) solution (manufactured by VECTOR, used by diluting 400 folds with 1% BSA-PBS) was added thereto, followed by stirring, and the reaction was carried out at 4° C. for 1 hour. After washing with PBS by centrifugation three times, 100 μl of a streptoavidin-labeled Cy5 pigment solution (Streptoavidin-RED670 manufactured by GIBCO, used by diluting 100 folds with 1% BSA-PBS) was added thereto, followed by stirring, and the reaction was carried out at 4° C. for 30 minutes. After the reaction and subsequent washing with PBS by centrifugation three times, the cells were again suspended in PBS to carry out the analysis using a flow cytometer EPICS Elite (manufactured by COULTER).

B16-29-10 = experiment: as above; type: binding, mouse; conditions: antibody 5 μg/ml; FIG. 3
Method: as §3

[4] = human serum as complement source; cited from earlier work
[5] = Reactivity of purified antibodies with various gangliosides (ELISA); type: binding; conditions: antibody 10 μg/ml, 20 pmol/well; FIG. 22; remark: listed apart in the source
Method: as §1, §2

binding to ganglioside [1]: did not bind
binding to ganglioside [5]: weakly
B1: KM871: anti-GD3 human chimeric antibody; VH SEQ ID NO:49, VL SEQ ID NO:50, human IgG1 and κ C regions (antibody, listed as Mus musculus, V domains shown)
VH: EVTLVESGGDFVKPGGSLKVSCAASGFAFSHYAMSWVRQTPAKRLEWVAYISSGGSGTYYSDSVKGRFTISRDNAKNTLYLQMRSLRSEDSAMYFCTRVKLGTYYFDSWGQGTTLTVSS
VL: DIQMTQTASSLPASLGDRVTISCSASQDISNYLNWYQQKPDGTVKLLIFYSSNLHSGVPSRFSGGGSGTDYSLTISNLEPEDIATYFCHQYSKLPWTFGGGTKLEIKR
modifications: human IgG1 and kappa constant regions
ADCC activity in comparison with the original mouse-derived antibody [2]: increased
CDC activity [3]: show the CDC activity
reactivity with cells (B16-8-3): reacted
reactivity with cells (B16-29-10): reacted
CDC activity in comparison with the original mouse-derived antibody [4]: increased
